Results as given in patent publication US20210230263A1 (BIOATLA, published 2021).

T1: human IL19 (human, UniProt Q9UHD0 25-177)
T1 sequence (looked up): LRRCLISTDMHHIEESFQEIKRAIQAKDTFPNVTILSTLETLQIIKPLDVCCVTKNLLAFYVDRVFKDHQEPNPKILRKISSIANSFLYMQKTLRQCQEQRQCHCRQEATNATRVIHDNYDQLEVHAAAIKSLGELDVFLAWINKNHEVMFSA

T2: human IL20 (human, UniProt Q9NYY1 25-176)
T2 sequence (looked up): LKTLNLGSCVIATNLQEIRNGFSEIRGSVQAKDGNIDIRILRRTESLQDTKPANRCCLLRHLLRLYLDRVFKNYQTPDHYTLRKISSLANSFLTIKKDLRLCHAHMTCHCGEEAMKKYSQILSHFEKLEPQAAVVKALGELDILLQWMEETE

T3: human IL24 (human, UniProt Q13007 52-206, limits assumed)
T3 sequence (looked up): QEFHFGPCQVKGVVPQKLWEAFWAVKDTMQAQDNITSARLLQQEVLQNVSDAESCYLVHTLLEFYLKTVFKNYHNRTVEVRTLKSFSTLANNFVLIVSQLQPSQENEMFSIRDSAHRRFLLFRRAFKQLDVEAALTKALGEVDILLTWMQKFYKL

T4: human IL26 (human, UniProt Q9NPH9 22-171, limits assumed)
T4 sequence (looked up): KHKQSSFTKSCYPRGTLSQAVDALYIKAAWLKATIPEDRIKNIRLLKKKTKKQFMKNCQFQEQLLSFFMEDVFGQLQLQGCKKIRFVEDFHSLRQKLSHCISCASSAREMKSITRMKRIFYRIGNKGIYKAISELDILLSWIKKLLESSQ

T5: INF-γ (Homo sapiens (Human), UniProt P01579 24-161)
T5 sequence: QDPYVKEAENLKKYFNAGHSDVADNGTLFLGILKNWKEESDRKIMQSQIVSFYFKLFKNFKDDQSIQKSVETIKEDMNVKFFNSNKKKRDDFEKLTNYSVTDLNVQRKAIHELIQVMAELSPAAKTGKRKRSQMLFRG

T6: human IL-22 (human, UniProt Q9GZX6 34-179)
T6 construct: also called hIL-22; hIL22
T6 sequence (looked up): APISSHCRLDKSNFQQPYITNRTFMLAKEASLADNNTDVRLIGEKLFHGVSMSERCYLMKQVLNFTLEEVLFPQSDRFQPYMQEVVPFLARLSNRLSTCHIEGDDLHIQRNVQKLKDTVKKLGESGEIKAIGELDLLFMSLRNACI

T7: mouse IL-22 (mouse, UniProt Q9JJY9 34-179)
T7 construct: also called mIL-22; mIL22
T7 sequence (looked up): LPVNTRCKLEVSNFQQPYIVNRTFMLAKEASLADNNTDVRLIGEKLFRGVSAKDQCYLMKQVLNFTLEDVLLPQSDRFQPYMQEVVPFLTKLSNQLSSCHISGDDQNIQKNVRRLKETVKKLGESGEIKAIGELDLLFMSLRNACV


Columns and labels:
[1] = molecular target: IL-22 (CXCL1 assay in HT29 cells); assay: cell-based or functional assay
human IL19 = molecular target: T1, human IL19; assay: ELISA on coated antigen (1 ug/ml), anti-hIgG-HRP, OD450;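 note: specificity check of antibodies applied at 100 ng/ml to wells bearing human or mouse IL-22, related cytokines or an unrelated control antigen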
Method: (§1) Plates were coated with 100 μl antigens at a concentration of 1 μg/ml. The plates were exposed to the antibodies at a concentration of 100 ng/ml. The bound antibodies were detected with anti-hIgG-HRP by the ELISA assay.

human IL20 = molecular target: T2, human IL20; assay: as above
Method: as §1

human IL24 = molecular target: T3, human IL24; assay: as above
Method: as §1

human IL26 = molecular target: T4, human IL26; assay: as above
Method: as §1

INF-γ = molecular target: T5, INF-γ; assay: as above
Method: as §1

INF-λ1 = INF-λ1 (Homo sapiens (Human), UniProt Q8IU54 20-200); assay: as above
Method: as §1

human IL-22 [2] = molecular target: T6, human IL-22; assay: SPR (SierraSensors SPR-2), hIL-22 immobilized on chip, antibody injected, Langmuir 1:1 model
Method: (§2) The affinity of the 10 antibodies of Table 1 was measured by Surface Plasma Resonance (SPR) using a capture assay on a SPR-2 instrument (SierraSensiors, Hamburg, Germany). The antigens hIL-22 and mIL-22 were immobilized on chips. The running buffer for the assay contained 10 mM HEPES with a pH of 7.4, 500 mM NaCl, and 0.05% TWEEN® 20. […] The off-rate was measured for 6 minutes. Binding constants were calculated using the curve fitting software Analyzer2 (Sierra Sensors). Sensorgrams were analyzed with the instrument specific software and with BIAevaluation 4.1 software. The binding data were analyzed using the Langmuir 1:1 model (human IL-22) or a model for a heterogeneous ligand (mouse IL-220).

mouse IL-22 [3] = molecular target: T7, mouse IL-22; assay: SPR (SierraSensors SPR-2), mIL-22 immobilized on chip, antibody injected, heterogeneous ligand model
Method: as §2

human IL-22 [4] = molecular target: T6, human IL-22; assay: affinity ELISA and titration ELISA, CPE library screen
From the text: (§3) Specifically, the CPE™ variants were screened by affinity ELISA for mouse IL-22 (mIL-22) binding affinity. […] The primary CPE™ hits were re-arrayed, re-transfected, and screened again by affinity ELISA and also by titration ELISA using both mIL-22 and human IL-22 (hIL-22) for antibodies that bind to both mIL-22 and hIL-22.

mouse IL-22 [5] = molecular target: T7, mouse IL-22; assay: as above
From the text: as §3

Sequence of INF-λ1 (Q8IU54 20-200 limits assumed): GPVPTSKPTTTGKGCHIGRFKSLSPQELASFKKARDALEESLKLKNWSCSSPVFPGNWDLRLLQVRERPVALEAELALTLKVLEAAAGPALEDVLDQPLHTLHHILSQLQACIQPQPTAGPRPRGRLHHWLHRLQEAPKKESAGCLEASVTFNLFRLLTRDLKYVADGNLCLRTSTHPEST

| Binder | IC50 (parameter C of the log-logit fit y=(A-D)/(1+(x/C)^B)+D) of inhibition of IL-22-induced CXCL1 production in HT29 cells [1] [ng/ml] | binding result (human IL19) | binding result (human IL20) | binding result (human IL24) | binding result (human IL26) | binding result (INF-γ) | binding result (INF-λ1) | Kd (human IL-22 [2]) [nM] | koff (human IL-22 [2]) [s⁻¹] | Kd (mouse IL-22 [3]) [nM] | koff (mouse IL-22 [3]) [s⁻¹] | binding result (human IL-22 [4]) | binding result (mouse IL-22 [5]) |
| --- | --- | --- | --- | --- | --- | --- | --- | --- | --- | --- | --- | --- | --- |
| CPE-LC-E049K (antibody, V domains shown, One of the mutant antibodies of the CPE library made from hum10 (CDR positions substituted); built here as hum10 with E49K in the light chain, read from its name) VH: QVQLVQSGAEVKKPGASVKVSCKASGYIFTSYWIHWIRQPPGKGLEWIGRIYPGTGNTYYNEKFKGRVTISADKSISTAYLQWSSLKASDTAMYYCARSYDSSCAYWGQGTLVTVSS VL: AIQLTQSPSSLSASVGDRVTITCSASSSVSYMHWYLQKPGQSPQLLIYKTSKLASGVPSRFSGSGSGTDFTFTISSLEAEDAATYYCQQWSSNPYITFGQGTKVEIKR | 124 | no binding (tested: 100 ng/ml) | no binding (tested: 100 ng/ml) | no binding (tested: 100 ng/ml) | no binding (tested: 100 ng/ml) | no binding (tested: 100 ng/ml) | no binding (tested: 100 ng/ml) | 0.156 | 5.93e-05 | 40.2 | 0.00137 |  |  |
| CPS-14 (antibody, V domains shown, Mutant of humanized hum10, whole antibody expressed in CHO cells; also called LC-04 / HC-31) VH: QVQLVQSGAEVKKPGASVKVSCKASGYIFTSYWIHWIRQPPGKGLEWIGRIYPGTGRTYYNRKFKGRVTISADKSISTAYLQWSSLKASDTAMYYCARSYDYSVAYWGQGTLVTVSS VL: AIQLTQSPSSLSASVGDRVTITCSASSSVSYMHWYLQKPGQSPQLLIYETRKLASGVPSRFSGSGSGTDFTFTISSLEAEDAATYYCQQWSSNPYITFGQGTKVEIKR | 44.2 | no binding (tested: 100 ng/ml) | no binding (tested: 100 ng/ml) | no binding (tested: 100 ng/ml) | no binding (tested: 100 ng/ml) | no binding (tested: 100 ng/ml) | no binding (tested: 100 ng/ml) | 0.0314 | 3.55e-05 | 4.8 | 0.00123 |  |  |
| CPS-17 (antibody, V domains shown, Mutant of humanized hum10, whole antibody expressed in CHO cells; also called LC-04 / HC-49) VH: QVQLVQSGAEVKKPGASVKVSCKASGYIFRSYWIHWIRQPPGKGLEWIGRIYPGTGNTYYNRKFKGRVTISADKSISTAYLQWSSLKASDTAMYYCARSYMYSVAYWGQGTLVTVSS VL: AIQLTQSPSSLSASVGDRVTITCSASSSVSYMHWYLQKPGQSPQLLIYETRKLASGVPSRFSGSGSGTDFTFTISSLEAEDAATYYCQQWSSNPYITFGQGTKVEIKR | 155 | no binding (tested: 100 ng/ml) | no binding (tested: 100 ng/ml) | no binding (tested: 100 ng/ml) | no binding (tested: 100 ng/ml) | no binding (tested: 100 ng/ml) | no binding (tested: 100 ng/ml) | 0.0522 | 6.94e-05 | 6.27 | 0.00158 |  |  |
| CPS-04 (antibody, V domains shown, Mutant of humanized hum10, whole antibody expressed in CHO cells; also called LC-07 / HC-09) VH: QVQLVQSGAEVKKPGASVKVSCKASGYIFRSYWIHWIRQPPGKGLEWIGRIYPGTGNTYYNRKFKGRVTISADKSISTAYLQWSSLKASDTAMYYCARSYDSSVAYWGQGTLVTVSS VL: AIQLTQSPSSLSASVGDRVTITCSASSSVSYMHWYLQKPGQSPQLLIYKTSKLLSGVPSRFSGSGSGTDFTFTISSLEAEDAATYYCQQWSSNPYITFGQGTKVEIKR | 51 | no binding (tested: 100 ng/ml) | no binding (tested: 100 ng/ml) | no binding (tested: 100 ng/ml) | no binding (tested: 100 ng/ml) | no binding (tested: 100 ng/ml) | no binding (tested: 100 ng/ml) | 0.0292 | 3.74e-05 | 4.23 | 0.00118 |  |  |

Further lines, results first:

| IC50 (parameter C of the log-logit fit y=(A-D)/(1+(x/C)^B)+D) of inhibition of IL-22-induced CXCL1 production in HT29 cells [1] [ng/ml] | binding result (human IL19) | binding result (human IL20) | binding result (human IL24) | binding result (human IL26) | binding result (INF-γ) | binding result (INF-λ1) | Kd (human IL-22 [2]) [nM] | koff (human IL-22 [2]) [s⁻¹] | Kd (mouse IL-22 [3]) [nM] | koff (mouse IL-22 [3]) [s⁻¹] | binding result (human IL-22 [4]) | binding result (mouse IL-22 [5]) | Binder |
| --- | --- | --- | --- | --- | --- | --- | --- | --- | --- | --- | --- | --- | --- |
|  |  |  |  |  |  |  |  |  |  |  | binds | binds | CPS-16 (antibody, V domains shown, Mutant of humanized hum10, whole antibody expressed in CHO cells; also called LC-03 / HC-49) VH: QVQLVQSGAEVKKPGASVKVSCKASGYIFRSYWIHWIRQPPGKGLEWIGRIYPGTGNTYYNRKFKGRVTISADKSISTAYLQWSSLKASDTAMYYCARSYMYSVAYWGQGTLVTVSS VL: AIQLTQSPSSLSASVGDRVTITCSASSSVSYMHWYLQKPGQSPQLLIYKTSKLASGVPSRFSGSGSGTDFTFTISSLEAEDAATYYCQQWSSNPYITFGQGTKVEIKR |
|  |  |  |  |  |  |  |  |  |  |  | binds | binds | CPS-10 (antibody, V domains shown, Mutant of humanized hum10, whole antibody expressed in CHO cells; also called LC-05 / HC-25) VH: QVQLVQSGAEVKKPGASVKVSCKASGYIFRSYWIHWIRQPPGKGLEWIGRIYPGTGRTYYNEKFKGRVTISADKSISTAYLQWSSLKASDTAMYYCARSYDYSVAYWGQGTLVTVSS VL: AIQLTQSPSSLSASVGDRVTITCSASSSVSYMHWYLQKPGQSPQLLIYETSKLLSGVPSRFSGSGSGTDFTFTISSLEAEDAATYYCQQWSSNPYITFGQGTKVEIKR |
|  |  |  |  |  |  |  |  |  |  |  | binds | binds | CPS-11 (antibody, V domains shown, Mutant of humanized hum10, whole antibody expressed in CHO cells; also called LC-06 / HC-25) VH: QVQLVQSGAEVKKPGASVKVSCKASGYIFRSYWIHWIRQPPGKGLEWIGRIYPGTGRTYYNEKFKGRVTISADKSISTAYLQWSSLKASDTAMYYCARSYDYSVAYWGQGTLVTVSS VL: AIQLTQSPSSLSASVGDRVTITCSASSSVSYMHWYLQKPGQSPQLLIYKTRKLASGVPSRFSGSGSGTDFTFTISSLEAEDAATYYCQQWSSNPYITFGQGTKVEIKR |
|  |  |  |  |  |  |  |  |  |  |  | binds | binds | CPS-20 (antibody, V domains shown, Mutant of humanized hum10, whole antibody expressed in CHO cells; also called LC-11 / HC-50) VH: QVQLVQSGAEVKKPGASVKVSCKASGYIFRSYWIHWIRQPPGKGLEWIGRIYPGTGNTYYNRKFKGRVTISADKSISTAYLQWSSLKASDTAMYYCARSYMSSVGYWGQGTLVTVSS VL: AIQLTQSPSSLSASVGDRVTITCSASSSVSKMHWYLQKPGQSPQLLIYETRKLASGVPSRFSGSGSGTDFTFTISSLEAEDAATYYCQQWSSNPYITFGQGTKVEIKR |
|  |  |  |  |  |  |  |  |  |  |  | binds | binds | CPS-01 (antibody, V domains shown, Mutant of humanized hum10, whole antibody expressed in CHO cells; also called LC-03 / HC-08) VH: QVQLVQSGAEVKKPGASVKVSCKASGYIFRSYWIHWIRQPPGKGLEWIGRIYPGTGRTYYNEKFKGRVTISADKSISTAYLQWSSLKASDTAMYYCARSYDSSVAYWGQGTLVTVSS VL: AIQLTQSPSSLSASVGDRVTITCSASSSVSYMHWYLQKPGQSPQLLIYKTSKLASGVPSRFSGSGSGTDFTFTISSLEAEDAATYYCQQWSSNPYITFGQGTKVEIKR |
